The record followed here is patent US20140120109A1 (Regeneron, published 2014).

By Kd is commonly meant the concentration at which binding is half-saturated.

The target in assay [1] is T1, human TL1A, soluble, CHO-expressed, residues 72-251 of SEQ ID NO:244 with N-terminal His6-tag (human, UniProt O95150 72-251).
T1 construct: also called hTL1A; hTL1A (CHO)
T1 sequence: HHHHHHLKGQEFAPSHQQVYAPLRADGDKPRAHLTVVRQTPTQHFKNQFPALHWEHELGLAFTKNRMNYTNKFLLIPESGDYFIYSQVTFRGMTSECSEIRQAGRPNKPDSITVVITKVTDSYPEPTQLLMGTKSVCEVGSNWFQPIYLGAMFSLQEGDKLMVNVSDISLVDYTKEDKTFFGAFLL
Put plainly: SPR 37C, mAb captured. In a few lines: (§1)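 Biacore T100 SPR with captured mAb and soluble TL1A/Fhm analyte; ka and kd fitted to a 1:1 model assuming monomeric TL1A. KD = kd/ka; t1/2 (min) = ln2/(60·kd).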

The target of assay [2] is T2, cynomolgus monkey TL1A, soluble, CHO-expressed, residues 72-251 of SEQ ID NO:248 with N-terminal His6-tag (cynomolgus monkey (Macaca fascicularis), UniProt O95150 72-251 (human entry)).
T2 construct: also called MfTL1A; MfTL1A (CHO)
T2 chain: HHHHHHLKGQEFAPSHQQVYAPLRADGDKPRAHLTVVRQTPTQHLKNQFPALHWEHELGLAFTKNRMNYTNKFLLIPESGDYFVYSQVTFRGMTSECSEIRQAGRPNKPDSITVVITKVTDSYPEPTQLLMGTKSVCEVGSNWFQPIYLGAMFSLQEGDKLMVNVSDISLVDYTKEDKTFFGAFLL
Description: SPR 37C, mAb captured. In a few lines: as §1

Assay [3] has as its target T3, mouse TL1A, soluble, CHO-expressed, residues 76-252 of SEQ ID NO:250 with N-terminal His6-tag (mouse, UniProt Q5UBV8 76-252).
T3 construct: also called mTL1A; mTL1A (CHO)
T3 sequence: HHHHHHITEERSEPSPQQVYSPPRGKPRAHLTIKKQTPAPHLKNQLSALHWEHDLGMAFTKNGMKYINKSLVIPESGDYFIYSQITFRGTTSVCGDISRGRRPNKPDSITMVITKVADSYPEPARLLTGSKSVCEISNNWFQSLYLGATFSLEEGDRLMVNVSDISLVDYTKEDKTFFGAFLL
Put plainly: SPR 37C, mAb captured. In a few lines: as §1

For assay [4], the target named is T4, Fhm, hTL1A(Q167R), soluble, CHO-expressed, residues 72-251 of SEQ ID NO:246 (human, UniProt O95150 72-251).
T4 chain: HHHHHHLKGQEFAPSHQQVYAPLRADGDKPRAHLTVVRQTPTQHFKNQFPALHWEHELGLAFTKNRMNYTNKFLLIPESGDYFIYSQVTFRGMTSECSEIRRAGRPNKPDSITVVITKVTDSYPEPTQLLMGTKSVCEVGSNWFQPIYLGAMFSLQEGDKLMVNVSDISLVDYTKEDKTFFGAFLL
Description: cell-based or functional assay.

Assay [5] addresses T5, rat TL1A, soluble, CHO-expressed, residues 76-252 of SEQ ID NO:258 with N-terminal His6-tag (rat, UniProt Q8K3Y7 76-252).
T5 sequence: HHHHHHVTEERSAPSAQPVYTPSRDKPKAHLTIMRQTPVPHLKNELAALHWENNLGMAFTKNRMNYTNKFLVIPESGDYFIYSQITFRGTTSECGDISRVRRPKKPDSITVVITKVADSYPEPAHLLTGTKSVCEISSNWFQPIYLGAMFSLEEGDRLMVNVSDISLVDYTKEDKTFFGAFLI
Put plainly: cell-based or functional assay.

Assay [6] addresses T6, cynomolgus monkey TL1A, soluble, E. coli-expressed, residues 72-251 of SEQ ID NO:248 (cynomolgus monkey (Macaca fascicularis), UniProt O95150 72-251 (human entry)).
T6 construct: with or without N-terminal Met; also called MfTL1A (E. Coli)
T6 chain: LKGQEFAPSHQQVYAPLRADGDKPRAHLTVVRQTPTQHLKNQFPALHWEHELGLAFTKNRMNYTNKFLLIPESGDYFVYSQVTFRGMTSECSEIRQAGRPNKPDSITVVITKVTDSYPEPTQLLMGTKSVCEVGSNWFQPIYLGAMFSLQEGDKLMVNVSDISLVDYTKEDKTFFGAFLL
Description: SPR 37C, mAb captured. In a few lines:
as §1

B1: H4H1804N (antibody, human IgG4 S228P, V domains shown)
VH: QVQLHQWGAGLLKPSETLSLTCAVSGVSFSDYHWAWIRQSPGKGLEWIGDINHRGRTNYNPSLKSRVTISLDTSGNPFSLKLTSVTAADTAVYYCARDFPNWVFDSWGQGILVTVSS
VL: EIVLSQSPGTLSLSPGERATLSCRASQSVSSSFLAWYQQYPGQAPRLLIYGASRRATGIPDRFRGSGSGTDFTLTISRLEPEDFAVYYCQQYGSSPLTFGGGTKVENK
notes: human IgG4(S108P) form of H2M1804N
Regarding B1, the Kd in assay [1] turned out to be 0.0458 nM; in assay [2] it was 0.078 nM. Besides, the values for the t1/2 in assay [1] and in assay [2] were 4.77 h and 2.78 h, respectively. In addition, the binding result in assay [3] is given as “no binding (tested: up to 100 nM)”. For the same molecule, the figures for the “IC50, NFkB-luciferase reporter” value in assay [4] and in assay [5] were 0.1 nM and 3.64 nM, respectively.

B2: H4H1742P (antibody, human IgG4 S228P, V domains shown)
VH: EVQLVESGGGLVQPGGSLRLSCAASGFTFSNYVMNWVRQAPGKGLEWVSVISGSGGSTHYADSVKGRFTISRDNSKDALYLQMNSLRAEDTAVYYCAKGPLEAYYYYNGMDVWGQGTTVTVSS
VL: DIQLTQSPSFLSASVGDRVTITCWASQAISSYLAWYQHKPGRAPKLLIYSTSTLQSGVPSRFSGSGSGTEFTLTISSLQPEDFATYYCQQLNSYPTFGQGTKLEIK
B2 displayed a Kd in assay [6] of 0.945 nM. This molecule had a t1/2 in assay [6] of 0.583 h. Also, the binding result in assay [3] was “no binding (tested: up to 100 nM)”. In addition, the “IC50, NFkB-luciferase reporter” value worked out at 0.53 nM in assay [4] and 6.12 nM in assay [5].
